In patent US20220288219A1 (MYTHIC THERAPEUTICS, published 2022):

T1: CD22 (Acro Biosystems, Cat #CD2-H52H8) (UniProt P20273 20-687)
T1 construct: soluble analyte, 50 nM in BLI; also called Acro Biosystems antigen
T1 sequence (looked up): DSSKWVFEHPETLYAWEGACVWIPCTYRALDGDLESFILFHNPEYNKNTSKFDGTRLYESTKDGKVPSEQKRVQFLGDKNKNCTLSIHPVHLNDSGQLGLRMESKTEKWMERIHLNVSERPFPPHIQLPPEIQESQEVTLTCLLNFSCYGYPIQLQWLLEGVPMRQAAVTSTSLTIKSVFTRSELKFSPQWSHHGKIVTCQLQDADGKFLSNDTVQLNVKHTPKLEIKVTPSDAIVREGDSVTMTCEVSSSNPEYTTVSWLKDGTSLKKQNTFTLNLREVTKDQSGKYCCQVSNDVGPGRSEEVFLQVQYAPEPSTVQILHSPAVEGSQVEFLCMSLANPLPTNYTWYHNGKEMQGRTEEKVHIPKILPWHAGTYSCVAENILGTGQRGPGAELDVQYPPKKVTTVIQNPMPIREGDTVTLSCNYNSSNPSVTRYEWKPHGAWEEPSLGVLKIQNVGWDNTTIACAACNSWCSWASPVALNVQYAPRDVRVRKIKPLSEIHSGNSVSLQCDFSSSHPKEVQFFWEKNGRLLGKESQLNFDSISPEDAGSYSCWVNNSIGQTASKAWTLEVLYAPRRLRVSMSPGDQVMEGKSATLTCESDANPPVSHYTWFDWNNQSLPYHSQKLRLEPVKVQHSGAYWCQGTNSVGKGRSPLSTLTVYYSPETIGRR

T2: CD22 Protein (His Tag), Sino Biological Cat. No. 11958-H08H (UniProt P20273 20-687)
T2 construct: soluble analyte, 50 nM in BLI; also called Sino Biological antigen
T2 sequence (looked up): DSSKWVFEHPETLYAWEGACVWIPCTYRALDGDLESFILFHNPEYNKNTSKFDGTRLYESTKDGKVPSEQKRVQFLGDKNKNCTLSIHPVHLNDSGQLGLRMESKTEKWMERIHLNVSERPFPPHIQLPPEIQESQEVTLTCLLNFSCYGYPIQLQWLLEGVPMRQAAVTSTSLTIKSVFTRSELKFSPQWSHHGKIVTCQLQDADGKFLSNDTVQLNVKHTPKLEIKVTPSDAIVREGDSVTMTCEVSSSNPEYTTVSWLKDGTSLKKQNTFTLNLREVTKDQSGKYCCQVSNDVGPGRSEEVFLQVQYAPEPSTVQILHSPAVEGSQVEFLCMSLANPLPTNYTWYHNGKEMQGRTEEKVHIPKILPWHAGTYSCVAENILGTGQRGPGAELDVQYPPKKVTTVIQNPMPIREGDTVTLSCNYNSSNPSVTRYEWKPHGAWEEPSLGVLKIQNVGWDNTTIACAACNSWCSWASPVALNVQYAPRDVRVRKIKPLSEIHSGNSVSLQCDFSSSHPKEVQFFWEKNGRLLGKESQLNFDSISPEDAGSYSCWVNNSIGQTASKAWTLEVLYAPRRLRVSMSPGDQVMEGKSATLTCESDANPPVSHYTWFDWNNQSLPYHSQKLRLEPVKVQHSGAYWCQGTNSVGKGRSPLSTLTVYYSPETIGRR


Tests used:
[1] = target: T1, CD22 (Acro Biosystems, Cat #CD2-H52H8); experiment: BLI, IgG on anti-human Fc sensor, 50 nM CD22
[2] = target: T2, CD22 Protein (His Tag), Sino Biological …; experiment: BLI, IgG on anti-human Fc sensor, 50 nM CD22

Row | Binder | binding result [1] | binding result [2]
1 | MYT0520 (antibody, V domains shown, inotuzumab VH Y27H; tie by order) VH: EVQLVQSGAEVKKPGASVKVSCKASGHRFTNYWIHWVRQAPGQGLEWIGGINPGNNYATYRRKFQGRVTMTADTSTSTVYMELSSLRSEDTAVYYCTREGYGNYGAWFAYWGQGTLVTVSS VL: DVQVTQSPSSLSASVGDRVTITCRSSQSLANSYGNTFLSWYLHKPGKAPQLLIYGISNRFSGVPDRFSGSGSGTDFTLTISSLQPEDFATYYCLQGTHQPYTFGQGTKVEIK | binds | binds
2 | MYT0550 (antibody, V domains shown, inotuzumab VH N103H; tie by order) VH: EVQLVQSGAEVKKPGASVKVSCKASGYRFTNYWIHWVRQAPGQGLEWIGGINPGNNYATYRRKFQGRVTMTADTSTSTVYMELSSLRSEDTAVYYCTREGYGHYGAWFAYWGQGTLVTVSS VL: DVQVTQSPSSLSASVGDRVTITCRSSQSLANSYGNTFLSWYLHKPGKAPQLLIYGISNRFSGVPDRFSGSGSGTDFTLTISSLQPEDFATYYCLQGTHQPYTFGQGTKVEIK | binds | binds
3 | MYT0536 (antibody, V domains shown, inotuzumab VH Y57H; tie by order) VH: EVQLVQSGAEVKKPGASVKVSCKASGYRFTNYWIHWVRQAPGQGLEWIGGINPGNNHATYRRKFQGRVTMTADTSTSTVYMELSSLRSEDTAVYYCTREGYGNYGAWFAYWGQGTLVTVSS VL: DVQVTQSPSSLSASVGDRVTITCRSSQSLANSYGNTFLSWYLHKPGKAPQLLIYGISNRFSGVPDRFSGSGSGTDFTLTISSLQPEDFATYYCLQGTHQPYTFGQGTKVEIK | binds | binds

More lines, now with the values ahead:

Row | binding result [1] | binding result [2] | Binder
4 | binds | binds | MYT0544 (antibody, V domains shown, inotuzumab VH T97H; tie by order) VH: EVQLVQSGAEVKKPGASVKVSCKASGYRFTNYWIHWVRQAPGQGLEWIGGINPGNNYATYRRKFQGRVTMTADTSTSTVYMELSSLRSEDTAVYYCHREGYGNYGAWFAYWGQGTLVTVSS VL: DVQVTQSPSSLSASVGDRVTITCRSSQSLANSYGNTFLSWYLHKPGKAPQLLIYGISNRFSGVPDRFSGSGSGTDFTLTISSLQPEDFATYYCLQGTHQPYTFGQGTKVEIK
5 | binds | binds | MYT0526 (antibody, V domains shown, inotuzumab VH W33H; tie by order) VH: EVQLVQSGAEVKKPGASVKVSCKASGYRFTNYHIHWVRQAPGQGLEWIGGINPGNNYATYRRKFQGRVTMTADTSTSTVYMELSSLRSEDTAVYYCTREGYGNYGAWFAYWGQGTLVTVSS VL: DVQVTQSPSSLSASVGDRVTITCRSSQSLANSYGNTFLSWYLHKPGKAPQLLIYGISNRFSGVPDRFSGSGSGTDFTLTISSLQPEDFATYYCLQGTHQPYTFGQGTKVEIK
